B1: PTP1B (from Upstate) (protein)
chain: MEMEKEFEQIDKSGSWAAIYQDIRHEASDFPCRVAKLPKNKNRNRYRDVSPFDHSRIKLHQEDNDYINASLIKMEEAQRSYILTQGPLPNTCGHFWEMVWEQKSRGVVMLNRVMEKGSLKCAQYWPQKEEKEMIFEDTNLKLTLISEDIKSYYTVRQLELENLTTQETREILHFHYTTWPDFGVPESPASFLNFLFKVRESGSLSPEHGPVVVHCSAGIGRSGTFCLADTCLLLMDKRKDPSSVDIKKVLLEMRKFRMGLIQTADQLRFSYLAVIEGAKFIMGDSSVQDQWKELSHEDLEPPPEHIPPPPRPPKRILEPHN
B2: GST-tagged recombinant full-length MTMR6 (NM-004685.2) (protein)
chain: MEHIRTTKVEQVKLLDRFSTSNKSLTGTLYLTATHLLFIDSHQKETWILHHHIASVEKLALTTSGCPLVIQCKNFRTVHFIVPRERDCHDIYNSLLQLSKQAKYEDLYAFSYNPKQNDSERLQGWQLIDLAEEYKRMGVPNSHWQLSDANRDYKICETYPRELYVPRIASKPIIVGSSKFRSKGRFPVLSYYHQDKEAAICRCSQPLSGFSARCLEDEHLLQAISKANPVNRYMYVMDTRPKLNAMANRAAGKGYENEDNYSNIRFQFVGIENIHVMRSSLQKLLEVNGTKGLSVNDFYSGLESSGWLRHIKAVMDAAIFLAKAITVENASVLVHCSDGWDRTSQVCSLGSLLLDSYYRTIKGFMVLIEKDWISFGHKFSERCGQLDGDPKEVSPVFTQFLECVWHLTEQFPQAFEFSEAFLLQIHEHIHSCQFGNFLGNCQKEREELKLKEKTYSLWPFLLEDQKKYLNPLYSSESHRFTVLEPNTVSFNFKFWRNMYHQFDRTLHPRQSVFNIIMNMNEQNKQLEKDIKDLESKIKQRKNKQTDGILTKELLHSVHPESPNLKTSLCFKEQTLLPVNDALRTIEGSSPADNRYSEYAEEFSKSEPAVVSLEYGVARMTC
B3: GST-tagged recombinant PTPsigma catalytic fragment (PTPRS-CTF; BC104812 aa1156-1501) (protein)
chain: IVMVPLRKSRGGQFLTPLGSPEDMDLEELIQDISRLQRRSLRHSRQLEVPRPYIAARFSVLPPTFHPGDQKQYGGFDNRGLEPGHRYVLFVLAVLQKSEPTFAASPFSDPFQLDNPDPQPIVDGEEGLIWVIGPVLAVVFIICIVIAILLYKNKPDSKRKDSEPRTKCLLNNADLAPHHPKDPVEMRRINFQTPDSGLRSPLREPGFHFESMLSHPPIPIADMAEHTERLKANDSLKLSQEYESIDPGQQFTWEHSNLEVNKPKNRYANVIAYDHSRVILQPIEGIMGSDYINANYVDGYRCQNAYIATQGPLPETFGDFWRMVWEQRSATIVMMTRLEEKSRIKC

This series addresses phosphotyrosine peptide (Upstate).
Regarding B1, the “in vitro phosphatase activity (malachite green, released phosphate)” value (“in vitro phosphatase activity” for short) is reported as “PTP1B, a bona fide PTPase, dephosphorylated p-Tyr exclusively”.

As for B2, the “in vitro phosphatase activity” value is “only negligible activity against p-Tyr”.

Regarding B3, the “in vitro phosphatase activity” value was “exhibiting significant activity against a tyrosine-phosphorylated peptide (p-Tyr)”.

These data come from patent publication US20120045459.
